Data from IntAct's records for PubMed 29340707.

B1: Serine/threonine-protein kinase VRK1 (Homo sapiens), Q99986 (parent)
chain: MPRVKAAQAGRQSSAKRHLAEQFAVGEIITDMAKKEWKVGLPIGQGGFGCIYLADMNSSESVGSDAPCVVKVEPSDNGPLFTELKFYQRAAKPEQIQKWIRTRKLKYLGVPKYWGSGLHDKNGKSYRFMIMDRFGSDLQKIYEANAKRFSRKTVLQLSLRILDILEYIHEHEYVHGDIKASNLLLNYKNPDQVYLVDYGLAYRYCPEGVHKEYKEDPKRCHDGTIEFTSIDAHNGVAPSRRGDLEILGYCMIQWLTGHLPWEDNLKDPKYVRDSKIRYRENIASLMDKCFPEKNKPGEIAKYMETVKLLDYTEKPLYENLRDILLQGLKAIGSKDDGKLDLSVVENGGLKAKTITKKRKKEIEESKEPGVEDTEWSNTQTEEAIQTRSRTRKRVQK

Variants of: B1
Conditions: with aurkb_human AURKB

| Variant | effect of a mutation on the interaction |
| --- | --- |
| K179E | increasing interaction strength |

Variants of: B1
Conditions: with aurkb_human AURKB
Remark: another data set of the same source

| Variant | effect of a mutation on the interaction |
| --- | --- |
| K179E | disrupting interaction strength |
